Target: the molecule itself
Assay: SEC-MALS

B1: full-length human BicD2 isoform 2 (natural protein, UniProt Q8TD16-2 1-855, looked up)
chain: MSAPSEEEEYARLVMEAQPEWLRAEVKRLSHELAETTREKIQAAEYGLAVLEEKHQLKLQFEELEVDYEAIRSEMEQLKEAFGQAHTNHKKVAADGESREESLIQESASKEQYYVRKVLELQTELKQLRNVLTNTQSENERLASVAQELKEINQNVEIQRGRLRDDIKEYKFREARLLQDYSELEEENISLQKQVSVLRQNQVEFEGLKHEIKRLEEETEYLNSQLEDAIRLKEISERQLEEALETLKTEREQKNSLRKELSHYMSINDSFYTSHLHVSLDGLKFSDDAAEPNNDAEALVNGFEHGGLAKLPLDNKTSTPKKEGLAPPSPSLVSDLLSELNISEIQKLKQQLMQMEREKAGLLATLQDTQKQLEHTRGSLSEQQEKVTRLTENLSALRRLQASKERQTALDNEKDRDSHEDGDYYEVDINGPEILACKYHVAVAEAGELREQLKALRSTHEAREAQHAEEKGRYEAEGQALTEKVSLLEKASRQDRELLARLEKELKKVSDVAGETQGSLSVAQDELVTFSEELANLYHHVCMCNNETPNRVMLDYYREGQGGAGRTSPGGRTSPEARGRRSPILLPKGLLAPEAGRADGGTGDSSPSPGSSLPSPLSDPRREPMNIYNLIAIIRDQIKHLQAAVDRTTELSRQRIASQELGPAVDKDKEALMEEILKLKSLLSTKREQITTLRTVLKANKQTAEVALANLKSKYENEKAMVTETMMKLRNELKALKEDAATFSSLRAMFATRCDEYITQLDEMQRQLAAAEDEKKTLNSLLRMAIQQKLALTQRLELLELDHEQTRRGRAKAAPKTKPATPSVSHTCACASDRAEGTGLANQVFCSEKHSIYCD
- stoichiometry N: 2

From paper doi:10.1101/2022.01.05.474964 (bioRxiv, 2022)
